Experimental data taken from patent publication US20030100489A1 (COLD SPRING HARBOR LABORATORY, published 2003).
Values belong to the binder of their own block, whether it stands above or below them.

What was measured:
cdc2 = molecular target: T1, cdc2 (human, UniProt P06493 1-297); assay: anti-CDC2 immunoprecipitation from TGF-β arrested human keratinocytes
T1 construct: Untagged: 35S-labelled in vitro translated, or endogenous in HaCaT human keratinocytes; also called CDK1

CDK2 = CDK2 (human, UniProt P24941 1-298); assay: anti-CDK2 immunoprecipitation from TGF-β arrested human keratinocytes
CDK4 Arg24-Cys mutant = molecular target: T2, CDK4 Arg24-Cys mutant (Homo sapiens (Human), UniProt P11802 1-303); assay: immunoprecipitation from mixed Sf9 lysates
T2 construct: Found in cells from a melanoma patient; also called mutant CDK4; Arg→Cys mutant of CDK4

GAL4db-PCNA fusion = molecular target: T3, GAL4db-PCNA fusion (UniProt P04386 1-147; P12004 1-261, limits assumed); assay: yeast two-hybrid (HIS3 growth and beta-galactosidase) in YPB2
T3 construct: Two-hybrid construct; also called GALAdb fusion construct containing PCNA
Protocol: (§1) Transformed cells were plated with and without histidine.
(§2) After growing cells in medium selective for both plasmids (minus tryptophan and minus leucine), two colonies were picked randomly and were streaked in plates that either contained or lacked histidine.

GAL4db-CDK5 fusion = molecular target: T4, GAL4db-CDK5 fusion (UniProt P04386 1-147; Q00535 1-292, limits assumed); assay: as above
T4 construct: Two-hybrid construct; also called GALAdb fusion construct containing CDK5
Protocol: as §1, §2

GAL4db-cdc2 fusion = molecular target: T5, GAL4db-cdc2 fusion (UniProt P04386 1-147; P06493 1-297, limits assumed); assay: as above
T5 construct: Two-hybrid construct; also called GALAdb fusion construct containing cdc2
Protocol: as §1, §2

GAL4db-CDK2 fusion = molecular target: T6, GAL4db-CDK2 fusion (UniProt P04386 1-147; P24941 1-298, limits assumed); assay: as above
T6 construct: Two-hybrid construct; also called GALAdb fusion construct containing CDK2
Protocol: as §1, §2

T2 sequence (P11802 whole entry R24C): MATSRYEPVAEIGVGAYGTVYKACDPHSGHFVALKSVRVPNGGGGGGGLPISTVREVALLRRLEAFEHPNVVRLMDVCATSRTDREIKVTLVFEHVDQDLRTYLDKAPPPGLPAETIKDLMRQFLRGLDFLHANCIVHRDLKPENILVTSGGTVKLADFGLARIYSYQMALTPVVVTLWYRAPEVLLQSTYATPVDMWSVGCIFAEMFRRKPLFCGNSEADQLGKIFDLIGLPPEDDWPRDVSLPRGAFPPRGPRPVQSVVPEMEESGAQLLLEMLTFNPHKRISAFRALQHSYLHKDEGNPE
T1 sequence (P06493 whole entry): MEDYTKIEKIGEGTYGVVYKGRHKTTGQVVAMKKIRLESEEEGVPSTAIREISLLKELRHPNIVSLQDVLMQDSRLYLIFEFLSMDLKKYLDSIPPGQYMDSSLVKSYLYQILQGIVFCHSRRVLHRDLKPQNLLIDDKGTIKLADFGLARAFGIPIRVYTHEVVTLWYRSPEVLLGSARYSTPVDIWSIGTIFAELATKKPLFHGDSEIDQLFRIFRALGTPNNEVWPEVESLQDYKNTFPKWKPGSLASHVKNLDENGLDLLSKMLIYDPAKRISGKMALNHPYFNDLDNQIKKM

binding result (cdc2): no binding
binding result (CDK2): no binding
binding result (CDK4 Arg24-Cys mutant): no binding
B1: p15 (other)
chain: MREENKGMPSGGGSDEGLATPARGLVEKVRHSWEAGADPNGVNRFGRRAIQVMMMGSARVAELLLLHGAEPNCADPATLTRPVHDAAREGFLDTLVVLHRAGARLDVRDAWGRLPVDLAEERGHRDVAGYLRTATGD
notes: Untagged p15: endogenous in HaCaT human keratinocytes or overexpressed in Sf9 cells (lysate); also called human p15; protein of approx. 15 kDa

binding result (GAL4db-PCNA fusion): no binding
binding result (GAL4db-CDK5 fusion): no binding
binding result (GAL4db-cdc2 fusion): no binding
binding result (GAL4db-CDK2 fusion): no binding
B2: GAL4ad-p16 fusion (other, not shown: large carriers)
chain: MEPAAGSSMEPSADWLATAAARGRVEEVRALLEAGALPNAPNSYGRRPIQVMMMGSARVAELLLLHGAEPNCADPATLTRPVHDAAREGFLDTLVVLHRAGARLDVRDAWGRLPVDLAEELGHRDVARYLRAAAGGTRGSNHARIDAAEGPSDIPD
notes: Two-hybrid construct in yeast YPB2; also called GALAad-p16

binding result (CDK4 Arg24-Cys mutant): no binding
B3: p16 (other)
chain: B2 chain
notes: also called human p16
